How the values were obtained:
hES-3 hESC line = assay: CHIR dose: hematopoietic/erythroid differentiation of agitated hPSC-MC aggregates; format: cell-based, human; conditions: optimal dose of CHIR-99021, day 4
hES-3-MC aggregates = assay: BMP4-based differentiation of hES-3-MC aggregates from static or agitated hPSC expansion; format: cell-based, human; conditions: BMP4-based protocol; for erythroid cells: starting from 2×10^5 hematopoietic precursors, repeated attempts; for T-bra: Day 2; for KDR: Day 4; for total hematopoietic precursors per well: after 2 weeks of differentiation; for total erythroblast per well: day 28
From the text: To test the hypothesis that agitation condition may be a major factor for variable differentiation, hES-3 that was initially expanded under either static (static human pluripotent stem cell (hPSC) expansion) or agitation (agitated human pluripotent stem cell expansion) condition for 7 days were differentiated under static condition using a BMP4-based differentiation protocol. […] (FIG. 10). […] Like-wise, subsequent generation of erythroblast was also severely impaired in cultures derived from agitated as compared to static hPSC expansion group (total erythroblast per well: 4.11±2.4×10^4 vs 26.2±4.7×10^6, respectively, p=0.005; total CD235a population: 0.51±0.1% vs 51.8±2.0%, p<0.0001) (FIG. 1E).
(§1) Mesoderm induction of hPSC-MC aggregates using BMP4 based protocol has previously been described. One million HPSC-MC aggregates were cultured in Stemline II hematopoietic stem cell expansion medium (Sigma-Aldrich, USA) containing 50 ng/ml of BMP4 and 50 ng/ml of VEGF165 under static condition. 48 hours later, half the medium was removed and replaced with Stemline II medium containing 50 ng/ml of BMP4, 50 ng/ml of VEGF165 and 20 ng/ml of bFGF (all cytokines from STEMCELL Technologies). HPSC-MC aggregates were cultured for a further 48 hours before being used for hematopoietic precursors differentiation.
as §1, with “One” for “Mesoderm induction of hPSC-MC aggregates using BMP4 based protocol has previously been described. One”, “VEGF165.” for “VEGF165 under static condition.”, “STEMCELL.” for “STEMCELL”, “precursor expansion.” for “precursors differentiation.”
HPSC-MC aggregates were dissociated into single cells by treatment with TrypLE. Express (ThermoFisher Scientific) for 5 minutes at 37° C., passed through 40 μm cell strainer (Greiner Bio-one), centrifuged at 1300 rpm for 3 minutes to pellet cells, and rinsed once with phosphate buffered saline (PBS) before re-suspension in Stemline II medium. Two hundred thousand cells in 100 μl of Stemline II medium were transferred to a 6-well ultra-low attachment plate and cultured with Blast growth medium (BGM) for 2 weeks in static conditions as detailed herein.
Hematopoietic precursors were mixed with equal volume of Stemline II medium containing 50 ng/ml of SCF (STEMCELL. Technologies) and 3 U/ml EPO (Peprotech, USA), for an additional 7 days. Subsequently, cells were diluted 10-fold with PBS and pelleted by centrifugation at 3000 rpm for 10 minutes. Erythroblast cells were seeded at a concentration of 2.5×10^5 cells/ml in 3 ml of Stemline II media containing 1× Serum Replacement 3 (Sigma-Aldrich), 0.3% v/v Ex-CYTE growth enhancement media supplement (Merck, USA), 100 ng/ml SCF, 3 U/ml EPO, 1 μM hydrocortisone (Sigma-Aldrich), 200 μg/ml holo-transferrin (MP Biomedicals) and 1× penicillin-streptomycin (ThermoFisher Scientific) in 6-well ultra-low attachment plates under static condition. Cells were re-suspended in fresh media every 4 days and reseeded at 2.5×10^5cells/m=l when cell concentrations exceeded 2×10^6cells/ml. Cumulative fold-expansion was calculated by multiplying fold-expansion achieved between passaging of cells over the course of experiment(s).
For flow cytometric analysis of mesoderm and hematopoietic surface markers, cells were incubated for 15 minutes at room temperature with 1:50 diluted direct-conjugated antibodies. The following human antibodies were used: T-brachyury-FITC (R&D Systems), KDR-PE (Miltenyi Biotec), CD31-PE, CD43-FITC, CD 45-PE, CD71-APC, CD235a-FITC (all from BD Biosciences, USA). The following antibodies were used as isotype-controls: mouse IgG1-FITC and PE (Miltenyi Biotec, Germany), mouse IgG2bk-FITC and mouse IgG2ak-APC (BD Biosciences). […]

Molecule: Cc1c[nH]c(-c2cnc(NCCNc3ccc(C#N)cn3)nc2-c2ccc(Cl)cc2Cl)n1 [CHIR-99021, 6-[[2-[[4-(2,4-Dichlorophenyl)-5-(5-methyl-1H-imidazol-2-yl)-2-pyrimidinyl]amino]ethyl]amino]-3-pyridinecarbonitrile]
- Mesoderm induction % KDR+ PDGFRα− (hES-3 hESC line): 14.6%

B1: BMP4: bone morphogenic protein; BMP4-based protocol uses 50 ng/ml BMP4 (protein, UniProt P12644 293-408, looked up)
Bone morphogenetic protein 4: SPKHHSQRARKKNKNCRRHSLYVDFSDVGWNDWIVAPPGYQAFYCHGDCPFPLADHLNSTNHAIVQTLVNSVNSSIPKACCVPTELSAISMLYLDEYDKVVLKNYQEMVVEGCGCR
- erythroid cells (hES-3-MC aggregates; MC-aggregates expanded in agitation condition): 0.004-4.2×10^7 erythroid cells
- erythroid cells (hES-3-MC aggregates; MC-aggregates expanded in static condition): 0.25-7.3×10^7 erythroid cells
- total CD235a population (hES-3-MC aggregates; agitated hPSC expansion): 0.51±0.1%
- T-bra (hES-3-MC aggregates; agitated hPSC expansion): 0.50±0.02%
- KDR (hES-3-MC aggregates; agitated hPSC expansion): 1.1±0.12%
- total hematopoietic precursors per well (hES-3-MC aggregates; agitated hPSC expansion): 1.39×10^5±2.18×10^4 per well
- total erythroblast per well (hES-3-MC aggregates; agitated hPSC expansion): 4.11±2.4×10^4 per well
- total CD235a population (hES-3-MC aggregates; static hPSC expansion): 51.8±2.0%
- T-bra (hES-3-MC aggregates; static hPSC expansion): 32.6±1.2%
- KDR (hES-3-MC aggregates; static hPSC expansion): 27.9±3.3%
- total hematopoietic precursors per well (hES-3-MC aggregates; static hPSC expansion): 5.77×10^6±6.30×10^5 per well
- total erythroblast per well (hES-3-MC aggregates; static hPSC expansion): 26.2±4.7×10^6 per well

Reference: patent US12104173B2, “Method for differentiation of human pluripotent stem cell lines in suspension culture” (AGENCY FOR SCIENCE, TECHNOLOGY AND RESEARCH, priority 2018, dated 2024)
